Experimental data taken from PMC11077437, “Scrutiny of chimeric antigen receptor activation by the extracellular domain: experience with single domain antibodies targeting multiple myeloma cells highlights the need for case-by-case optimization” (Frontiers in Immunology, 2024).
Residue numbers refer to the chain shown, from its start.

B1: VHH-73 (VHH)
VHH: DVQLVESGGGMVQSGGSLRLSCAASGFTFSSYDMSWVRQAPGKGPEWVSTINTGGSSTYYDDSVKGRFTISRDNAKNTLYLQMNSLKPEDTALYYCARGGPYSRDYWGQGTQVTVSS
notes: 99mTc-labelled on the His tag for the in vivo experiment; source: E. coli WK6 periplasm, purified (IMAC, SEC); not shown: His6, C-terminal, kept
B2: VHH-61 (VHH)
VHH: DVQLVESGGGMVQPGGSLRLSCAASGFTFSSYGMSWVRQAPGKGPEWVSYINVGGGSTYYDDSVKGRFTISRDNAKNTLYLQMNSLKPEDTALYYCARGDPYSDHPQRTWGQGTQVTVSS
notes: as for B1
B3: VHH-63 (VHH)
VHH: DVQLVESGGGLVQPGGSLRLSCTVSGLTFSDYDMSWVRQAPGKGPEWVSFINTGGGSTYYDDSVKGRFTISRDNAKNTLYLQMDSLKPEDTALYYCARGDPYSDPKYWGQGTQVTVSS
notes: as for B1
B4: VHH-6 (VHH)
VHH: DVQLVESGGGLVQAGGSLRLSCAASGRTFEDYFMAWFRQIPGKEREFVAAVGWNTGRGYYTDSVKGRFTISRDSAKNTLYLQMDSLKPEDTAVYYCNAPLQSLDRRLPGPYWGQGTQVTVSS
notes: as for B1
B5: VHH-29 (VHH)
VHH: DVQLVESGGGLVQPGGSLRLSCAASGFTFSSYAMSWVRQAPGKGPEWVSHINTGGGSTYYDDSVKGRFTISRDNAKNTLYLQMNSLKPEDTALYYCARGDPFDEYRYWGQGTQVTVSS
notes: as for B1
B6: VHH-53 (VHH)
VHH: B5 VHH with L11M, A33D, H50Y, P88A, D103Q, E104R, Y105P, R106K
notes: as for B1
B7: VHH-57 (VHH)
VHH: B5 VHH with L11M, A33G, D61A, F102W, D103G, E104H, Y105D, R106P, Y107S
notes: as for B1
B8: VHH-71 (VHH)
VHH: B3 VHH with L11M, T23A, V24A, L27F, D31S, D84N
notes: as for B1
B9: VHH-17 (VHH)
VHH: DVQLVESGGGLVQPGDSLRLSCTASGFTFSNYPMSWVRQAPGKGPEWISHINTGGGSTYYADSVKGRFTISRDNAKNTLYLQMNSLKPEDTALYYCARGDPFKYSGSYLRGQGTQVTVSS
notes: as for B1
B10: VHH-78 (VHH)
VHH: QVQLQESGGGLVQPGGSLRLSCAASGSIFSILAMGWYRQAPGKQRELVASVTNGGSTNYADSVKGRFTISRDNAKNTVYLQMNSLKPEDTAVYYCNVRPYSDYDSWGHGTQVTVSS
notes: source: E. coli WK6 periplasm, purified (IMAC, SEC); not shown: His6, C-terminal, kept
B11: VHH-79 (VHH)
VHH: QVQLQESGGGLVQPGGSLRLSCAASGSIFSILAMAWYRQAPGKQRELVASITNGGSTNYADSVKGRFTISRDNDKNTVYLLMNSLKPEDTAVYYCNPRPMPWGTYDYWGQGTQVTVSS
notes: as for B10
B12: VHH-24 (VHH)
VHH: B5 VHH with L11M, A33D, N52T, Y59H, E104S, Y105S, Y107D
notes: as for B10
B13: VHH-28 (VHH)
VHH: B5 VHH with F29L, S30D, S31D, H50Y, P88A, D103Q, E104R, Y105P, R106K
notes: as for B10
B14: VHH-56 (Table 1, the row between 53 and 57) (VHH)
VHH: B5 VHH with A33G, D61A, F102W, D103G, E104H, Y105D, R106P, Y107S
notes: this is the second; source: E. coli WK6 periplasm, purified (IMAC, SEC); not shown: His6, C-terminal, kept
B15: VHH-65 (VHH)
VHH: B5 VHH with L11M, P14S, A33D, H50Y, P88A, D103Q, E104R, Y105P, R106K
notes: as for B10
B16: VHH-22 (VHH)
VHH: B5 VHH with A33D, N52T, Y59H, E104S, Y105S, Y107D
notes: as for B10
B17: VHH-51 (VHH)
VHH: B5 VHH with L11M, A33D, Q39L, H50Y, P88A, D103Q, E104R, Y105P, R106K
notes: as for B10

Target: T1, human CS1 on CS1pos OPM2 multiple myeloma cells (Homo sapiens, OPM2 myeloma cells, UniProt Q9NQ25)
Test: cell-based or functional assay
Settings: not given

tumor uptake of the 99mTc-labelled VHH in subcutaneous CS1pos OPM2 tumors in mice, ex vivo at 90 min p.i. (n=3) [% IA/g] | Binder
0.52 | B1
6.57 | B2
1.03 | B3
6.29 | B4
4.75 | B5
7.5 | B6
0.85 | B7
4.02 | B8
1.05 | B9

Target: T2, recombinant murine CS1 protein (CS1-(his)C) (Mus musculus, strain , UniProt Q8BHK6)
T2 construct: CS1 (SLAMF7), murine, the extracellular portion; also called muCS1; source: HEK293-E 253 cells, transiently transfected, purified from the supernatant (IMAC, SEC) by U Protein Express
T2 sequence (Q8BHK6 23-224): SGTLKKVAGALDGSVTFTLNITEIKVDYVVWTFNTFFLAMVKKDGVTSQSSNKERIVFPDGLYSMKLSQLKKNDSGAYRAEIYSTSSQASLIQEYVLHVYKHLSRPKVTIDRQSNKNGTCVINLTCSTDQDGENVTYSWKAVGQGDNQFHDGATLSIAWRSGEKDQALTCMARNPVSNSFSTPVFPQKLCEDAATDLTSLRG
Test: SPR; follow-up SPR on plate-coated muCS1 (Supplementary Figure 1)
Settings: both partners purified

binding result | Binder
binds | B10
binds | B11

Target: T3, murine CS1 on muCS1pos 5T33vt cells (Mus musculus, 5T33vt myeloma cells, UniProt Q8BHK6)
T3 construct: CS1 (SLAMF7), murine, as expressed on 5T33vt cells; source: on murine CS1pos 5T33vt cells
T3 sequence (Q8BHK6 23-333): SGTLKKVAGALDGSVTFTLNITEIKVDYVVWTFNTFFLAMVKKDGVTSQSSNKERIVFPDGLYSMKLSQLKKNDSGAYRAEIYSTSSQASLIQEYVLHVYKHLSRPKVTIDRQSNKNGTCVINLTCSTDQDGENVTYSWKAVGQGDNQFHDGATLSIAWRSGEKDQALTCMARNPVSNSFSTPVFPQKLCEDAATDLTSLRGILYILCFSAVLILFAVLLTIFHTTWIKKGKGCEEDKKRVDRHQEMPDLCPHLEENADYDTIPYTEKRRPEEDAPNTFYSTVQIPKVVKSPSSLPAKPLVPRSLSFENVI
Test: flow cytometry on cells; VHH on muCS1pos 5T33vt cells (Supplementary Figure 2)
Settings: one partner purified

binding result | Binder
binds | B10
binds | B11

Target: T4, recombinant human CS1 protein (CS1-(his)C) (Homo sapiens, UniProt Q9NQ25)
T4 construct: CS1 (SLAMF7, CD319), human, the extracellular portion; also called huCS1; SLAMF7; source: HEK293-E 253 cells, transiently transfected, purified from the supernatant (IMAC, SEC) by U Protein Express
Test: SPR; Biacore T200; recombinant CS1 amine-coupled on a CM5 chip; VHH 100 nM to 3.125 nM in HBS pH 7.4, 25°C; association 180 s, dissociation 300 s; fit '1:1 binding with drift and RI2'; n=1
Settings: both partners purified

binding result | Binder
no binding (tested: 100 nM) | B10
no binding (tested: 100 nM) | B11

Target: T4, recombinant human CS1 protein …
Test: as above
Settings: both partners purified
Remark: another data set of the same source

Kd [nM] | koff [s⁻¹] | kon [M⁻¹ s⁻¹] | Binder
35.8 | 0.00254 | 74400 | B1
0.33 | 8.1e-05 | 250000 | B2
9.8 | 0.0019 | 190000 | B3
3.8 | 0.00079 | 210000 | B4
1.6 | 0.00024 | 150000 | B5
0.81 | 0.0003 | 370000 | B6
24.7 | 0.0085 | 350000 | B7
4.7 | 0.00047 | 100000 | B12
1.2 | 0.00025 | 210000 | B13
36.1 | 0.01 | 279000 | B14
2.32 | 0.000979 | 423000 | B15
4 | 0.00048 | 120000 | B16
0.6 | 0.00029 | 490000 | B17
4.29 | 0.0016 | 372000 | B8

Target: T1, human CS1 on CS1pos OPM2 multiple …
Test: flow cytometry on cells; purified VHH at 200 nM, 1 h at 4°C, on CS1pos OPM2 cells; detected by mouse anti-His IgG1 mAb and APC anti-mouse IgG1 mAb; ΔMFI against the non-targeting control VHH R3B23 at 200 nM; n=1
Settings: one partner purified

binding result | Binder
no binding (tested: 200 nM) | B10
no binding (tested: 200 nM) | B11

Target: T1, human CS1 on CS1pos OPM2 multiple …
Test: as above
Settings: one partner purified
Remark: another data set of the same source

ΔMFI [VHH] = 200 nM | Binder
1.35 | B1
10.3 | B2
3.37 | B3
101 | B4
29.4 | B5
22.1 | B6
4.8 | B7
20.6 | B12
6.58 | B13
4.72 | B14
11.4 | B15
7.29 | B16
14.3 | B17
11.2 | B8
13 | B9
